B1: Azoarcus group I ribozyme (parent)
chain: GUGCCUUGCGCCGGGAAACCACGCAAGGGAUGGUGUCAAAUUCGGCGAAACCUAAGCGCCCGCCCGGGCGUAUGGCAACGCCGAGCCAAGCUUCGGCGCCUGCGCCGAUGAAGGUGUAGAGACUAGACGGCACCCACCUAAGGCAAACGCUAUGGUGAAGGCAUAGUCCAGGGAGUGGCGAAAGUCACACAAACCGG

The data set covers variants of B1. Put plainly: reverse-splicing fitness (ratio to wild type); higher = more active; in vitro selection; Mg2+ level not given. The procedure, abridged:
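An in vitro group I ribozyme library with randomized positions was T7-transcribed and gel-purified. In triplicate, 10 pmol RNA in EPPS pH 7.5 was reacted with 50 pmoles of a 30-nt RNA substrate for 1 h at 37 °C across several added MgCl2 levels (1–48 mM), then stopped with EDTA. Products were reverse transcribed from a substrate-complementary primer, PCR-amplified and sequenced (HiSeq 4000). Fitness is a variant's read proportion after selection over that before, normalised to wild type.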
As for C82A A111G A120C A145G C150A C169U, the reverse-splicing fitness came out at 0.00999. For the variant C82A A111G A120C A145G C150A C169A, the reverse-splicing fitness was found to be 0.0119. Turning to C82A A111C A145U C150G, the reverse-splicing fitness was determined as 0.0181.

As to C82A A111C A145U C150A, the reverse-splicing fitness came to 0.0227.

As for C82A A111C A145U C150U, the reverse-splicing fitness was determined as 0.135. For C82A A111C C150A C169G U176G the value was 0.00951. In the case of C82A A111C C150A C169G U176C it was 0.0222. Consider C82A A111C C150A C169G U176A, for which the reverse-splicing fitness amounted to 0.0151. Turning to C82A A111G A120C A145U C150G C169G U176G, the reverse-splicing fitness was 0.00589. In the case of C82A A111G A120C A145U C150G C169G U176A, the reverse-splicing fitness worked out at 0.00801. In the case of C82A A111G A120C A145U C150G C169G U176C it was 0.00564; in that of C82A A111C A145U C150G U176C, 0.0161. For the variant C82A A111C A145U C150G U176G, the reverse-splicing fitness stood at 0.00428. In the case of C82A A111C A145U C150G U176A it was 0.00919; in that of C82A A111G A120C A145C C150A C169G U176G, 0.00763; in that of C82A A111G A120C A145C C150A C169G U176A, 0.0288. In the case of C82A A111G A120C A145C C150A C169G U176C it was 0.025. For C82A A111G A120C A145C C150A U176A the value was 0.0102; for C82A A111G A120C A145C C150A U176C, 0.0151; for C82A A111G A120C A145C C150A U176G, 0.00529.

Consider C82A A111G A120C A145G C169G U176A, for which the reverse-splicing fitness amounted to 0.0216. In the case of C82A A111G A120C A145G C169G U176G it was 0.0054. For C82A A111G A120C A145G C169G U176C the value was 0.0275.

Turning to C82A A111C C150U C169A U176A, the reverse-splicing fitness was 0.0146. For the variant C82A A111C C150U C169A U176C, the reverse-splicing fitness came out at 0.0125. For C82A A111C C150U C169A U176G the value was 0.00801; for C82A A111C C150A, 0.0239; for C82A A111C C150U, 0.113. In the case of C82A A111C C150G it was 0.016; in that of C82A A111G A120C A145G C150A C169A U176A, 0.019; in that of C82A A111G A120C A145G C150A C169A U176G, 0.00941. In the case of C82A A111G A120C A145G C150A C169A U176C it was 0.0211. Regarding C82A A111G A120C A145C C150A C169A U176C, the reverse-splicing fitness came to 0.0105. In the case of C82A A111G A120C A145C C150A C169A U176G it was 0.00558; in that of C82A A111G A120C A145C C150A C169A U176A, 0.0178; in that of C82A A111C C150G C169U U176C, 0.0137. As for C82A A111C C150G C169U U176G, the reverse-splicing fitness was 0.00629. For C82A A111C C150G C169U U176A the value was 0.0073; for C82A A111C A145U C150G C169A, 0.0091; for C82A A111C A145U C150G C169U, 0.00887.

As to C82A A111C A145U C150G C169G, the reverse-splicing fitness is 0.00748. In the case of C82A A111C A145G C150G U176A it was 0.00936. For C82A A111C A145G C150G U176G the value was 0.00607; for C82A A111C A145G C150G U176C, 0.0173. For C82A A111C A145G C150U C169U U176A the value was 0.0138; for C82A A111C A145G C150U C169U U176G, 0.00766; for C82A A111C A145G C150U C169U U176C, 0.0143. Take C82A A111G A120C A145C C150G C169A U176A: the reverse-splicing fitness was determined as 0.00906. In the case of C82A A111G A120C A145C C150G C169A U176G it was 0.00545; in that of C82A A111G A120C A145C C150G C169A U176C, 0.0108; in that of C82A A111G A120C A145G C150A C169G U176C, 0.0242. For C82A A111G A120C A145G C150A C169G U176G the value was 0.00711. With C82A A111G A120C A145G C150A C169G U176A, the reverse-splicing fitness amounted to 0.0211. Turning to C82A A111G A120C A145C C150A C169U, the reverse-splicing fitness was 0.00853. Regarding C82A A111G A120C A145C C150A C169G, the reverse-splicing fitness came to 0.00832. In the case of C82A A111G A120C A145C C150A C169A it was 0.00989; in that of C82A A111C A145U C169U, 0.0124; in that of C82A A111C A145U C169A, 0.0078. As to C82A A111C A145U C169G, the reverse-splicing fitness was 0.0101. Consider C82A A111C C150U C169G U176G, for which the reverse-splicing fitness came out at 0.00899. For C82A A111C C150U C169G U176A the value was 0.013; for C82A A111C C150U C169G U176C, 0.0175; for C82A A111G A120C A145C C169A U176G, 0.0053. Turning to C82A A111G A120C A145C C169A U176C, the reverse-splicing fitness came to 0.0109. In the case of C82A A111G A120C A145C C169A U176A it was 0.0162; in that of C82A A111G A120C A145G C169A U176C, 0.0269; in that of C82A A111G A120C A145G C169A U176G, 0.00562.

For the variant C82A A111G A120C A145G C169A U176A, the reverse-splicing fitness stood at 0.0226. In the case of C82A A111G A120C A145U C150G C169A it was 0.00895; in that of C82A A111G A120C A145U C150G C169G, 0.0075. In the case of C82A A111G A120C A145U C150G C169U it was 0.00884; in that of C82A A111G A120C A145C C150G C169A, 0.0102. C82A A111G A120C A145C C150G C169G: the reverse-splicing fitness came out at 0.00705. For C82A A111G A120C A145C C150G C169U the value was 0.009; for C82A A111C A145G U176G, 0.017. For C82A A111C A145G U176C the value was 0.0992. In the case of C82A A111C A145G U176A it was 0.0768. Regarding C82A A111C A145U C169G U176G, the reverse-splicing fitness is 0.00756. In the case of C82A A111C A145U C169G U176C it was 0.0193; in that of C82A A111C A145U C169G U176A, 0.0124; in that of C82A A111G A120C A145U C150A C169U U176A, 0.0152. Turning to C82A A111G A120C A145U C150A C169U U176C, the reverse-splicing fitness turned out to be 0.0123. In the case of C82A A111G A120C A145U C150A C169U U176G it was 0.00664; in that of C82A A111G A120C A145G C150U U176C, 0.0258.

These data come from the RNAGym collection of RNA variant scans (doi:10.1093/molbev/msab373).
